Experimental data published in US20160228506A1, “Compositions and Formulations for Prevention and Reduction of Tumorigenesis, Cancer Cell Proliferation and Invasion, and Methods of Production and Use Thereof in Cancer Treatment” (PRONUTRIA, INC., priority 2013, published 2016).
Like-named read-outs stand apart in the source and are kept apart here.

B1: Deglycosylated SEQID-00363: SEQID-00363 with mannose glycans reduced enzymatically by alpha mannosidase (protein)
chain: ATLDSWLSNEATVARTAILNNIGADGAWVSGADSGIVVASPSTDNPDYFYTWTRDSGLVLKTLVDLFRNGDTSLLSTIENYISAQAIVQGISNPSGDLSSGAGLGEPKFNVDETAYTGSWGRPQRDGPALRATAMIGFGQWLLDNGYTSTATDIVWPLVRNDLSYVAQYWNQTGYDLWEEVNGSSFFTIAVQHRALVEGSAFATAVGSSCSWCDSQAPEILCYLQSFWTGSFILANFDSSRSGKDANTLLGSIHTFDPEAACDDSTFQPCSPRALANHKEVVDSFRSIYTLNDGLSDSEAVAVGRYPEDTYYNGNPWFLCTLAAAEQLYDALYQWDKQGSLEVTDVSLDFFKALYSDAATGTYSSSSSTYSSIVDAVKTFADGFVSIVETHAASNGSMSEQYDKSDGEQLSARDLTWSYAALLTANNRRNSVVPASWGETSASSVPGTCAATSAIGTYSSVTVTSWPSIVATGGTTTTATPTGSGSVTSTSKTTATASKTSTSTSSTSCTTPTAVAVTFDLTATTTYGENIYLVGSISQLGDWETSDGIALSADKYTSSDPLWYVTVTLPAGESFEYKFIRIESDDSVEWESDPNREYTVPQACGTSTATVTDTWR
modifications: deglycosylated; Aspergillus niger
B2: SEQID-00690: engineered secreted variant of SEQID-00407 enriched in essential amino acids which retains enzymatic activity (protein, listed as Bacillus subtilis)
chain: ETANKSNELTAPSIKSGTILHAWNWSFNTLKHNMKDIHDAGYTAIQTSPINQVKEGNQGDKSMSNWYWLYQPTSYQIGNRYLGTEQEFKEMCAAAEEYGIKVIVDAVINHTTSDLVGVLSNEVKSIPNWTHGNTQIKNWSDRWDVTQNSLLGLYDWNTQNTQVQSYLKRFLDRALNDGADGFRFDAAKHIELPDDGSYGSQFWPNITRVVMEFQYGEILQDSASRDAAYANYMDVTASNYGHSIRSALKNRNLGVSNIVMYILRVSADKLVTWVESHDTYANDDEESTWMSDDDIRLGWAVIASRSGSTPLFFSRPEGGGNGVRFPGKSQIGDRGSALFEDQAITAVNRFHNVMAGLPKRLSNPNGNNQIFMNQRGSHGVVLANAGSSSVSINTATKLPDGRYDNKAGAGSFQVNDGKLTGTINARSVAVLYPDDIAKAPHVFLENYKTGVTHSFNDQLTITMRADANTTKAVYQINNGPETAFKDGDQFTIGKGDPFGKTYTIMLKGTNSDGVTRTEKYSFVKRDPASAKTIGYQNPNHWSQVNAYIYKHDGSRVIELTGSWPGKPMTKNADGIYTLTLPADTDTTNAKVIFNNGSAQVPGQNQPGFDYVLNGLYNDSGLSGSLPH
modifications: source: /note="strain 168"

What was measured:
[1] = rat, in vivo
Experimental: A rat pharmacokinetic study with oral administration of native and modified forms of SEQID-00363 was performed as described herein. The indigestible marker Cobalt-EDTA was formulated at 50 mg/L in the dosed protein solutions to monitor differences in intestinal transit rate between treatment groups and individual rats. Following the final blood collection (at t=4 h) rats were euthanized and the terminal ileum (20 cm of small intestine prior to the cecum) and its contents (the digesta) were collected into a pre-weighed tube. The ileum was flushed with saline and pooled with the digesta. The pH of the digesta was adjusted to ˜3.0 with HCl in order to inactivate all enzymes. The ileum samples were placed into separate pre-weighed 15 mL conical tubes. All samples were flash frozen in liquid nitrogen, and stored at −80° C. until further analysis. Individual ileum and ileum content weights were calculated and recorded for each sample.
A sample of the digesta, which exists as a heterogenous solution containing insoluble particles, was used in the Coomassie Plus Protein Assay, as described herein, to determine protein concentration.

Pancreatin = assay type: in vitro ADME, Porcine
Experimental: Control samples were protease-free.
Analyses were performed using an Agilent 1100 series system.

[2] = rat, in vivo, po
Experimental: The boavailability o native and modified forms (ie. deglycosylated and hydrolyzed) of SEQID-00363 was evaluated using the methods described in herein. Briefly, native and modified forms of SEQID-00363 were orally administered to intrajugular-cannulated rats and concentration of free amino acids in plasma samples collected over a 4 h period was determined by HPLC amino acid analysis.

[3] = simulated gi fluid
α-amylase = assay: Amylase activity assay on starch plates (halo); set-up: species or system Bacillus subtilis
Experimental: SEQID-00407 is an α-amylase in Bacillus subtilis that has the activity of breaking down polysaccharides, such as starch, into monosaccharides or disaccharides. […] If there is enzymatic activity, the secreted enzyme will breakdown the starch and upon staining by iodine, there will be a halo surrounding the Bacillus subtilis colonies. 1% starch plates were made by combining 25 g Luria Broth-Miller, 10 g starch, 15 g bacteriological agar, and 1 L water. 10 mM IPTG was added to the starch plates after the agar has solidified. Single colonies of Bacillus subtilis strains expressing the mutant polypeptides were inoculated in 5 ml LB at 37° C. for 4 hours and 50 μl of the liquid culture were spotted at the center for the starch plates. After 20 hours of growth and induced secretion, 10% iodine was added to the starch plates to stain for starch. When the wild-type enzyme is secreted, it creates a large halo around the cells. […] Table E37A quantifies the area of the halos relative to the area of the cells. […]
SEQID-00407 is an α-amylase in Bacillus subtilis that has the activity of breaking down polysaccharides, such as starch, into monosaccharides or disaccharides. […] Table E38E quantifies the area of the halos relative to the area of the cells.

[4] = Intact half-life during simulated gastric fluid (SGF) digestion; conditions: SGF pH 1.5, pepsin:polypeptide 1:20 w/w, 37° C.; intact protein

Molecule	total protein mass in digesta samples [1]	Free Leu (μM) at 120 min time point of Pancreatin digest (Pancreatin)	bioavailability of Leucine and EAAs versus native SEQID-00363 [2]	bioavailability of Serine and Threonine versus native SEQID-00363 [2]	SGF Half-life (t½) [3]	Halo/Cell (α-amylase; area of halo relative to area of cells)	Halo Area (in^2) (α-amylase; starch plate, iodine stain, 20 hours)	SGF Half-life (t½) [4]
B1	7.7 mg	799.2 µM	did not increase the bioavailability	did increase the bioavailability	4.3 min			
B2						2.63	1.234 in^2	4.4 min
